The sequences below were run against FGFR3 (UniProt P22607) (assay: phosphorylation enrichment, bacterial display (enrichment ratio); higher = better substrate or ligand; peptides without Tyr show the background).
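Also: 11-residue human phosphosite peptides and single-mutation variants displayed on the E. coli surface, counted by deep sequencing, each peptide's frequency after selection divided by its frequency in the unselected input library; frequency after pTyr selection over input frequency; kinase dosed for 20-30% of maximal phosphorylation in three min.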

FGFR3, sequence (P22607 whole entry, looked up): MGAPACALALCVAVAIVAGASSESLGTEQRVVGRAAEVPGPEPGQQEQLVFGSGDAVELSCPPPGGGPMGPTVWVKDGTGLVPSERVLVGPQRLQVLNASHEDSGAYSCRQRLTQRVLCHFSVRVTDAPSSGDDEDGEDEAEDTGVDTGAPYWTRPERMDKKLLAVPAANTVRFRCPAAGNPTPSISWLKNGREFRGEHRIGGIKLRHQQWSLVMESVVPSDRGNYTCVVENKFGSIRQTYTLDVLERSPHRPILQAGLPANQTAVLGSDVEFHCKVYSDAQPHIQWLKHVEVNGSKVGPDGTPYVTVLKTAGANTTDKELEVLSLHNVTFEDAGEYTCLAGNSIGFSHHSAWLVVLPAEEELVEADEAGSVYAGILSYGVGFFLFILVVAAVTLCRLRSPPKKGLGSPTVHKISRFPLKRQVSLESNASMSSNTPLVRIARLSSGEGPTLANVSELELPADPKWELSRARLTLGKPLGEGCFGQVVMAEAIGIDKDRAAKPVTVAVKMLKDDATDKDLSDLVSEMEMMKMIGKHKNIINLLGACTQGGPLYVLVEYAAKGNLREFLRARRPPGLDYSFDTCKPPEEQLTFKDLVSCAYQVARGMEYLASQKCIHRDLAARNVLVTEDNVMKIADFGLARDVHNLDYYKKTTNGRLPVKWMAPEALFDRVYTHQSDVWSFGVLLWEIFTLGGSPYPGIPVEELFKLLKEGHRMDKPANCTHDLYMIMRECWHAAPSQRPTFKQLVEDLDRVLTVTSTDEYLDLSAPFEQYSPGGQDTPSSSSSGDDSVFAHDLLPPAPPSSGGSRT

First: CNPRRYPVLMS [OR2T1_Y182_L180R]
Second: ERRLIYTSDPK [VPS13D_Y864]
The phosphorylation enrichment of the first is higher: 0.485 for the first, 0.372 for the second.

First: EDKSIYRRGAC [PRKCI_Y125_R130C]
Second: CEHRGFLFLAI [TEK_Y897_Y897F_YF]
The phosphorylation enrichment of the first is lower: 0.495 for the first, 0.651 for the second.

First: PLKYLYPNIDK [STAT1_Y668]
Second: GFITSYREEEQ
The phosphorylation enrichment of the first is lower: 0.614 for the first, 0.631 for the second.

First: AIMSFYAALID [RYR1_Y2426]
Second: FATAGYGSLEA [EPHA10_Y959_A956T]
The phosphorylation enrichment of the first is higher: 0.988 for the first, 0.663 for the second.

Compared with RRNNSYTCFTA [SLC20A2_Y386_YF], TLQRMYGCDVG [HLA-B_Y123_S121R] is lower in phosphorylation enrichment: 1.33 for the first, 0.771 for the second.

Going from QNVADYMRFLM [RPL5_Y207_YF] to MKALGYFAVVK [OPA1_Y498_T503K], the phosphorylation enrichment falls from 1.09 to 0.692.

Going from TAGFIYEKWEI [TEC_Y360_S359I] to VMAALYGRLFE [BTD_Y536_T532M_YF], the phosphorylation enrichment falls from 0.804 to 0.752.

Going from GRQWNYVASML [KLHL4_Y552_S557L] to RLLVVYPWTQK [HBG1_Y36_R41K], the phosphorylation enrichment rises from 0.565 to 0.69.

Compared with SVMAEYGLFRA [VSX2_Y219_G223R_YF], VVKTVYSLQPP [KNSTRN_Y87] is lower in phosphorylation enrichment: 0.538 for the first, 0.525 for the second.

Going from QPTPGYEVGQR [TSC2_Y1788_E1783Q] to QYNPEYVQQAS [LRRC7_Y1058_H1054Y], the phosphorylation enrichment rises from 0.621 to 1.05.

Compared with TTKAKYKTPIF [PLD2_Y573_T577I_YF], SSSGAYGGGYG [KRT19_Y61] is lower in phosphorylation enrichment: 0.572 for the first, 0.367 for the second.

Compared with KMKGDYYRSLA [YWHAG_Y130_Y133S], EKKKFYDAKIE [CASP5_Y104_T106A_YF] is higher in phosphorylation enrichment: 0.513 for the first, 0.534 for the second.

First: EKKDLYKAGEQ [CFH_Y1008_V1007L]
Second: TISPFYCQSLF [CRYAA_Y48_R49C_YF]
The phosphorylation enrichment of the first is lower: 0.647 for the first, 0.723 for the second.

Compared with SVTCTYSLALN [TP53_Y126_P128L], GARGRYVMGGP [TNK1_Y277] is lower in phosphorylation enrichment: 0.802 for the first, 0.419 for the second.

Compared with FGVTLYPNSGE [MEP1A_Y472_R476G], DVQNAYDSNHC [ZFYVE16_Y36] is higher in phosphorylation enrichment: 0.714 for the first, 0.719 for the second.

First: ANRNVYEVEPT [MEGF10_Y1075]
Second: PATFTYDEFKK [COL8A2_Y648_YF]
The phosphorylation enrichment of the first is lower: 0.47 for the first, 1.12 for the second.

In the case of LHRAHYDLCHT [AHSG_Y314_R317C], the phosphorylation enrichment is reported as 0.648.

These sequences were tested on Fer (mouse) in the same assay as above.

Compared with CNPRRYPVLMS [OR2T1_Y182_L180R], ERRLIYTSDPK [VPS13D_Y864] is higher in phosphorylation enrichment: 0.358 for the first, 0.43 for the second.

First: EDKSIYRRGAC [PRKCI_Y125_R130C]
Second: CEHRGFLFLAI [TEK_Y897_Y897F_YF]
The phosphorylation enrichment of the first is lower: 0.35 for the first, 0.515 for the second.

Compared with PLKYLYPNIDK [STAT1_Y668], GFITSYREEEQ is lower in phosphorylation enrichment: 0.614 for the first, 0.488 for the second.

Compared with AIMSFYAALID [RYR1_Y2426], FATAGYGSLEA [EPHA10_Y959_A956T] is lower in phosphorylation enrichment: 0.69 for the first, 0.37 for the second.

First: RRNNSYTCFTA [SLC20A2_Y386_YF]
Second: TLQRMYGCDVG [HLA-B_Y123_S121R]
The phosphorylation enrichment of the first is higher: 0.734 for the first, 0.542 for the second.

First: QNVADYMRFLM [RPL5_Y207_YF]
Second: MKALGYFAVVK [OPA1_Y498_T503K]
The phosphorylation enrichment of the first is higher: 0.818 for the first, 0.596 for the second.

First: TAGFIYEKWEI [TEC_Y360_S359I]
Second: VMAALYGRLFE [BTD_Y536_T532M_YF]
The phosphorylation enrichment of the first is higher: 11.6 for the first, 0.612 for the second.

First: GRQWNYVASML [KLHL4_Y552_S557L]
Second: RLLVVYPWTQK [HBG1_Y36_R41K]
The phosphorylation enrichment of the first is lower: 0.366 for the first, 0.468 for the second.

Going from SVMAEYGLFRA [VSX2_Y219_G223R_YF] to VVKTVYSLQPP [KNSTRN_Y87], the phosphorylation enrichment falls from 0.513 to 0.387.

Going from QPTPGYEVGQR [TSC2_Y1788_E1783Q] to QYNPEYVQQAS [LRRC7_Y1058_H1054Y], the phosphorylation enrichment rises from 0.21 to 0.939.

Compared with TTKAKYKTPIF [PLD2_Y573_T577I_YF], SSSGAYGGGYG [KRT19_Y61] is lower in phosphorylation enrichment: 0.487 for the first, 0.364 for the second.

Compared with KMKGDYYRSLA [YWHAG_Y130_Y133S], EKKKFYDAKIE [CASP5_Y104_T106A_YF] is higher in phosphorylation enrichment: 0.325 for the first, 0.435 for the second.

Compared with EKKDLYKAGEQ [CFH_Y1008_V1007L], TISPFYCQSLF [CRYAA_Y48_R49C_YF] is higher in phosphorylation enrichment: 0.431 for the first, 0.837 for the second.

First: SVTCTYSLALN [TP53_Y126_P128L]
Second: GARGRYVMGGP [TNK1_Y277]
The phosphorylation enrichment of the first is higher: 0.558 for the first, 0.405 for the second.

First: FGVTLYPNSGE [MEP1A_Y472_R476G]
Second: DVQNAYDSNHC [ZFYVE16_Y36]
The phosphorylation enrichment of the first is lower: 0.54 for the first, 0.555 for the second.

Going from ANRNVYEVEPT [MEGF10_Y1075] to PATFTYDEFKK [COL8A2_Y648_YF], the phosphorylation enrichment rises from 0.473 to 1.68.

For LHRAHYDLCHT [AHSG_Y314_R317C], the phosphorylation enrichment was 0.516.

Each sequence was assayed against Fes (UniProt P07332) in the same assay as above.
Fes, sequence (P07332 whole entry, looked up): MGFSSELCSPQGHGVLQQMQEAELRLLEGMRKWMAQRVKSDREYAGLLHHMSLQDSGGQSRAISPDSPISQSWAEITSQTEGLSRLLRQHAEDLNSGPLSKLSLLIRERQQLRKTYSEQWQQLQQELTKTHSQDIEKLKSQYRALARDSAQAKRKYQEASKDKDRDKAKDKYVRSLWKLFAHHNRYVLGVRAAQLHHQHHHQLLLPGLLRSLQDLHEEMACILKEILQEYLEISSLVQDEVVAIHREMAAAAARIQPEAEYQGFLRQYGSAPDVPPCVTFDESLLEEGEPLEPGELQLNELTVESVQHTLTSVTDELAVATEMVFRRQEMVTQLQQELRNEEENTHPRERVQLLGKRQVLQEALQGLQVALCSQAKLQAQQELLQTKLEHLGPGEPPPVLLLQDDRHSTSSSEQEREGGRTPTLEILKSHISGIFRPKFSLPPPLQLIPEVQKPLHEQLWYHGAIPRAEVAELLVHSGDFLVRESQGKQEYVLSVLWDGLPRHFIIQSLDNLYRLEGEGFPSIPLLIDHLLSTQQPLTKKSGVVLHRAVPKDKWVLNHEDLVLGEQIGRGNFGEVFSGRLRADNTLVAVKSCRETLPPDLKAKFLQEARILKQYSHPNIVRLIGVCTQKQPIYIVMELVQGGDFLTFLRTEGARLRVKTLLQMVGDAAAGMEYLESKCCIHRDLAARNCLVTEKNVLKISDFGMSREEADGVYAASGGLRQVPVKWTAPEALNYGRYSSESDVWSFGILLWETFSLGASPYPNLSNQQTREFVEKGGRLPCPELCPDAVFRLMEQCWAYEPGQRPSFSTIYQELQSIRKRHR

First: CNPRRYPVLMS [OR2T1_Y182_L180R]
Second: ERRLIYTSDPK [VPS13D_Y864]
The phosphorylation enrichment of the first is higher: 0.833 for the first, 0.64 for the second.

Going from EDKSIYRRGAC [PRKCI_Y125_R130C] to CEHRGFLFLAI [TEK_Y897_Y897F_YF], the phosphorylation enrichment rises from 0.705 to 1.16.

Going from PLKYLYPNIDK [STAT1_Y668] to GFITSYREEEQ, the phosphorylation enrichment rises from 0.896 to 1.14.

Going from AIMSFYAALID [RYR1_Y2426] to FATAGYGSLEA [EPHA10_Y959_A956T], the phosphorylation enrichment falls from 1.48 to 0.94.

Going from RRNNSYTCFTA [SLC20A2_Y386_YF] to TLQRMYGCDVG [HLA-B_Y123_S121R], the phosphorylation enrichment falls from 1.68 to 1.14.

First: QNVADYMRFLM [RPL5_Y207_YF]
Second: MKALGYFAVVK [OPA1_Y498_T503K]
The phosphorylation enrichment of the first is higher: 1.97 for the first, 1.25 for the second.

Going from TAGFIYEKWEI [TEC_Y360_S359I] to VMAALYGRLFE [BTD_Y536_T532M_YF], the phosphorylation enrichment falls from 1.72 to 1.18.

First: GRQWNYVASML [KLHL4_Y552_S557L]
Second: RLLVVYPWTQK [HBG1_Y36_R41K]
The phosphorylation enrichment of the first is lower: 0.809 for the first, 0.926 for the second.

Compared with SVMAEYGLFRA [VSX2_Y219_G223R_YF], VVKTVYSLQPP [KNSTRN_Y87] is higher in phosphorylation enrichment: 0.661 for the first, 0.817 for the second.

Going from QPTPGYEVGQR [TSC2_Y1788_E1783Q] to QYNPEYVQQAS [LRRC7_Y1058_H1054Y], the phosphorylation enrichment rises from 0.759 to 1.28.

Compared with TTKAKYKTPIF [PLD2_Y573_T577I_YF], SSSGAYGGGYG [KRT19_Y61] is lower in phosphorylation enrichment: 0.717 for the first, 0.526 for the second.

Going from KMKGDYYRSLA [YWHAG_Y130_Y133S] to EKKKFYDAKIE [CASP5_Y104_T106A_YF], the phosphorylation enrichment rises from 0.562 to 0.803.

Compared with EKKDLYKAGEQ [CFH_Y1008_V1007L], TISPFYCQSLF [CRYAA_Y48_R49C_YF] is higher in phosphorylation enrichment: 0.799 for the first, 1.2 for the second.

Going from SVTCTYSLALN [TP53_Y126_P128L] to GARGRYVMGGP [TNK1_Y277], the phosphorylation enrichment falls from 1.38 to 0.555.

First: FGVTLYPNSGE [MEP1A_Y472_R476G]
Second: DVQNAYDSNHC [ZFYVE16_Y36]
The phosphorylation enrichment of the first is higher: 1.12 for the first, 0.949 for the second.

Compared with ANRNVYEVEPT [MEGF10_Y1075], PATFTYDEFKK [COL8A2_Y648_YF] is higher in phosphorylation enrichment: 0.755 for the first, 1.43 for the second.

LHRAHYDLCHT [AHSG_Y314_R317C] was tested, and the phosphorylation enrichment was 1.12.

These sequences were tested against Fyn (UniProt P06241) in the same assay as above.
Fyn, sequence (P06241 whole entry, looked up): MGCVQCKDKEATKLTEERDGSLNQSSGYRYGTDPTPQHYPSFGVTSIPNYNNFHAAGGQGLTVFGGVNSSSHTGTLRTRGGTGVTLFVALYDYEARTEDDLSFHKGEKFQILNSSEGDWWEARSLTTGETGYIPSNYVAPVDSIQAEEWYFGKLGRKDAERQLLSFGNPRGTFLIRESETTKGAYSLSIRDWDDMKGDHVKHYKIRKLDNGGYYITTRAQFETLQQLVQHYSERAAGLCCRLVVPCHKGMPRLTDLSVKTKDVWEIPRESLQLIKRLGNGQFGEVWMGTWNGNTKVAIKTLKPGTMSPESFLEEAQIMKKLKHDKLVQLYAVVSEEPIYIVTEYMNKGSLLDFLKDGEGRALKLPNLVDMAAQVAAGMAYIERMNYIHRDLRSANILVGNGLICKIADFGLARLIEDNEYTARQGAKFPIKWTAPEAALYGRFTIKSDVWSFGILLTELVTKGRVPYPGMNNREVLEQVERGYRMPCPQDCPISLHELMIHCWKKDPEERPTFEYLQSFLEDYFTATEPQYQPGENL

Compared with CNPRRYPVLMS [OR2T1_Y182_L180R], ERRLIYTSDPK [VPS13D_Y864] is lower in phosphorylation enrichment: 0.501 for the first, 0.444 for the second.

Going from EDKSIYRRGAC [PRKCI_Y125_R130C] to CEHRGFLFLAI [TEK_Y897_Y897F_YF], the phosphorylation enrichment rises from 0.375 to 0.403.

First: PLKYLYPNIDK [STAT1_Y668]
Second: GFITSYREEEQ
The phosphorylation enrichment of the first is higher: 0.564 for the first, 0.494 for the second.

Compared with AIMSFYAALID [RYR1_Y2426], FATAGYGSLEA [EPHA10_Y959_A956T] is lower in phosphorylation enrichment: 0.506 for the first, 0.441 for the second.

Going from RRNNSYTCFTA [SLC20A2_Y386_YF] to TLQRMYGCDVG [HLA-B_Y123_S121R], the phosphorylation enrichment falls from 1.19 to 0.568.

Going from QNVADYMRFLM [RPL5_Y207_YF] to MKALGYFAVVK [OPA1_Y498_T503K], the phosphorylation enrichment falls from 1.2 to 0.464.

Compared with TAGFIYEKWEI [TEC_Y360_S359I], VMAALYGRLFE [BTD_Y536_T532M_YF] is higher in phosphorylation enrichment: 2.78 for the first, 6.68 for the second.

Going from GRQWNYVASML [KLHL4_Y552_S557L] to RLLVVYPWTQK [HBG1_Y36_R41K], the phosphorylation enrichment rises from 0.434 to 0.508.

First: SVMAEYGLFRA [VSX2_Y219_G223R_YF]
Second: VVKTVYSLQPP [KNSTRN_Y87]
The phosphorylation enrichment of the first is higher: 6.8 for the first, 2.59 for the second.

Going from QPTPGYEVGQR [TSC2_Y1788_E1783Q] to QYNPEYVQQAS [LRRC7_Y1058_H1054Y], the phosphorylation enrichment rises from 0.541 to 0.707.

First: TTKAKYKTPIF [PLD2_Y573_T577I_YF]
Second: SSSGAYGGGYG [KRT19_Y61]
The phosphorylation enrichment of the first is higher: 0.499 for the first, 0.359 for the second.

First: KMKGDYYRSLA [YWHAG_Y130_Y133S]
Second: EKKKFYDAKIE [CASP5_Y104_T106A_YF]
The phosphorylation enrichment of the first is higher: 0.388 for the first, 0.369 for the second.

First: EKKDLYKAGEQ [CFH_Y1008_V1007L]
Second: TISPFYCQSLF [CRYAA_Y48_R49C_YF]
The phosphorylation enrichment of the first is lower: 0.43 for the first, 0.571 for the second.

Going from SVTCTYSLALN [TP53_Y126_P128L] to GARGRYVMGGP [TNK1_Y277], the phosphorylation enrichment falls from 0.78 to 0.332.

Going from FGVTLYPNSGE [MEP1A_Y472_R476G] to DVQNAYDSNHC [ZFYVE16_Y36], the phosphorylation enrichment rises from 0.481 to 0.495.

Compared with ANRNVYEVEPT [MEGF10_Y1075], PATFTYDEFKK [COL8A2_Y648_YF] is lower in phosphorylation enrichment: 6.32 for the first, 1.9 for the second.

With LHRAHYDLCHT [AHSG_Y314_R317C] the phosphorylation enrichment was 0.401.

— the supplement of paper PMC10065799, “High-throughput profiling of sequence recognition by tyrosine kinases and SH2 domains using bacterial peptide display” (eLife, 2023)
